{
  "source": "patent US20260242735A1",
  "about": "(UNIVERSIT T BASEL, published 2026)",
  "key": {"human CD33 E121A": {"molecular_target": "human CD33 E121A (human, UniProt P20138 18-364)", "sequence (P20138 18-364 E121A limits assumed)": "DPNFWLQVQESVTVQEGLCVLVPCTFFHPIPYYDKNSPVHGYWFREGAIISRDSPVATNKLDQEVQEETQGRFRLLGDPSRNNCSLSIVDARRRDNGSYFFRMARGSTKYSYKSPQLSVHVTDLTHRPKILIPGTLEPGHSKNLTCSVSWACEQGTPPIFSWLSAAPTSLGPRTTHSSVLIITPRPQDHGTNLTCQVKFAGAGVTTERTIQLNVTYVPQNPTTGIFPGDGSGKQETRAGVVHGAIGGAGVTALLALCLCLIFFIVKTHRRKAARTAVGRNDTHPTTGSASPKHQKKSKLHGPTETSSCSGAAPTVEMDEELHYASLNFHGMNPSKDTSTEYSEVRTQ", "experiment": "flow cytometry on HEK293-T, alanine scan", "description": "(§1) An alanine scan on human CD33 was performed to the determine the residues on CD33 that are involved in binding to the antibodies investigated. […] Briefly, a mutation library of CD33 was created by high-throughput, site-directed mutagenesis. Each residue was individually mutated to alanine, with alanine codons mutated to serine. The mutant library was arrayed in 384-well microplates and transiently transfected into HEK293-T. Following transfection, cells were incubated with the indicated antibodies (IgG or Fab) at concentrations pre-determined using an independent immunofluorescence titration curve on wild type CD33. […] Binding of each antibody to each mutant clone was determined in duplicates. For each point, background fluorescence was subtracted from the raw data, which were then normalized to antibody reactivity with wild type CD33.\n(§2) Critical residues for antibody binding (outlined in dark grey) were residues whose mutations led to a binding of the test Abs of less than 20%. Additional secondary residues (outlined in light grey) were identified that led to a binding of the test Abs of between 20 and 40% as compared to the wild type CD33."}, "human CD33 G156A": {"molecular_target": "human CD33 G156A (human, UniProt P20138 18-364)", "sequence (P20138 18-364 G156A limits assumed)": "as the sequence (P20138 18-364 E121A limits assumed) above, with A104E, G139A counted along it", "experiment": "flow cytometry on HEK293-T, alanine scan", "description": "as §1, §2"}, "human CD33 P145A": {"molecular_target": "human CD33 P145A (human, UniProt P20138 18-364)", "sequence (P20138 18-364 P145A limits assumed)": "as the sequence (P20138 18-364 E121A limits assumed) above, with A104E, P128A counted along it", "experiment": "flow cytometry on HEK293-T, alanine scan", "description": "as §1, §2"}, "human CD33 R109A": {"molecular_target": "human CD33 R109A (human, UniProt P20138 18-364)", "sequence (P20138 18-364 R109A limits assumed)": "as the sequence (P20138 18-364 E121A limits assumed) above, with R92A, A104E counted along it", "experiment": "flow cytometry on HEK293-T, alanine scan", "description": "as §1, §2"}, "human CD33 K146A": {"molecular_target": "human CD33 K146A (human, UniProt P20138 18-364)", "sequence (P20138 18-364 K146A limits assumed)": "as the sequence (P20138 18-364 E121A limits assumed) above, with A104E, K129A counted along it", "experiment": "flow cytometry on HEK293-T, alanine scan", "description": "as §1, §2"}, "human CD33 D95A": {"molecular_target": "human CD33 D95A (human, UniProt P20138 18-364)", "sequence (P20138 18-364 D95A limits assumed)": "as the sequence (P20138 18-364 E121A limits assumed) above, with D78A, A104E counted along it", "experiment": "flow cytometry on HEK293-T, alanine scan", "description": "as §1, §2"}, "human CD33 W167A": {"molecular_target": "human CD33 W167A (human, UniProt P20138 18-364)", "sequence (P20138 18-364 W167A limits assumed)": "as the sequence (P20138 18-364 E121A limits assumed) above, with A104E, W150A counted along it", "experiment": "flow cytometry on HEK293-T, alanine scan", "description": "as §1, §2"}, "human CD33 T152A": {"molecular_target": "human CD33 T152A (human, UniProt P20138 18-364)", "sequence (P20138 18-364 T152A limits assumed)": "as the sequence (P20138 18-364 E121A limits assumed) above, with A104E, T135A counted along it", "experiment": "flow cytometry on HEK293-T, alanine scan", "description": "as §1, §2"}, "human CD33 I147A": {"molecular_target": "human CD33 I147A (human, UniProt P20138 18-364)", "sequence (P20138 18-364 I147A limits assumed)": "as the sequence (P20138 18-364 E121A limits assumed) above, with A104E, I130A counted along it", "experiment": "flow cytometry on HEK293-T, alanine scan", "description": "as §1, §2"}, "human CD33 K159A": {"molecular_target": "human CD33 K159A (human, UniProt P20138 18-364)", "sequence (P20138 18-364 K159A limits assumed)": "as the sequence (P20138 18-364 E121A limits assumed) above, with A104E, K142A counted along it", "experiment": "flow cytometry on HEK293-T, alanine scan", "description": "as §1, §2"}, "human CD33 L141A": {"molecular_target": "human CD33 L141A (human, UniProt P20138 18-364)", "sequence (P20138 18-364 L141A limits assumed)": "as the sequence (P20138 18-364 E121A limits assumed) above, with A104E, L124A counted along it", "experiment": "flow cytometry on HEK293-T, alanine scan", "description": "as §1, §2"}, "human CD33 S158A": {"molecular_target": "human CD33 S158A (human, UniProt P20138 18-364)", "sequence (P20138 18-364 S158A limits assumed)": "as the sequence (P20138 18-364 E121A limits assumed) above, with A104E, S141A counted along it", "experiment": "flow cytometry on HEK293-T, alanine scan", "description": "as §1, §2"}, "human CD33 T139A": {"molecular_target": "human CD33 T139A (human, UniProt P20138 18-364)", "sequence (P20138 18-364 T139A limits assumed)": "as the sequence (P20138 18-364 E121A limits assumed) above, with A104E, T122A counted along it", "experiment": "flow cytometry on HEK293-T, alanine scan", "description": "as §1, §2"}, "human CD33 N100A": {"molecular_target": "human CD33 N100A (human, UniProt P20138 18-364)", "sequence (P20138 18-364 N100A limits assumed)": "as the sequence (P20138 18-364 E121A limits assumed) above, with N83A, A104E counted along it", "experiment": "flow cytometry on HEK293-T, alanine scan", "description": "as §1, §2"}, "human CD33 S164A": {"molecular_target": "human CD33 S164A (human, UniProt P20138 18-364)", "sequence (P20138 18-364 S164A limits assumed)": "as the sequence (P20138 18-364 E121A limits assumed) above, with A104E, S147A counted along it", "experiment": "flow cytometry on HEK293-T, alanine scan", "description": "as §1, §2"}, "human CD33 L148A": {"molecular_target": "human CD33 L148A (human, UniProt P20138 18-364)", "sequence (P20138 18-364 L148A limits assumed)": "as the sequence (P20138 18-364 E121A limits assumed) above, with A104E, L131A counted along it", "experiment": "flow cytometry on HEK293-T, alanine scan", "description": "as §1, §2"}, "human CD33 L93A": {"molecular_target": "human CD33 L93A (human, UniProt P20138 18-364)", "sequence (P20138 18-364 L93A limits assumed)": "as the sequence (P20138 18-364 E121A limits assumed) above, with L76A, A104E counted along it", "experiment": "flow cytometry on HEK293-T, alanine scan", "description": "as §1, §2"}, "human CD33 H137A": {"molecular_target": "human CD33 H137A (human, UniProt P20138 18-364)", "sequence (P20138 18-364 H137A limits assumed)": "as the sequence (P20138 18-364 E121A limits assumed) above, with A104E, H120A counted along it", "experiment": "flow cytometry on HEK293-T, alanine scan", "description": "as §1, §2"}, "human CD33 D112A": {"molecular_target": "human CD33 D112A (human, UniProt P20138 18-364)", "sequence (P20138 18-364 D112A limits assumed)": "as the sequence (P20138 18-364 E121A limits assumed) above, with D95A, A104E counted along it", "experiment": "flow cytometry on HEK293-T, alanine scan", "description": "as §1, §2"}, "human CD33 R122A": {"molecular_target": "human CD33 R122A (human, UniProt P20138 18-364)", "sequence (P20138 18-364 R122A limits assumed)": "as the sequence (P20138 18-364 E121A limits assumed) above, with A104E, R105A counted along it", "experiment": "flow cytometry on HEK293-T, alanine scan", "description": "as §1, §2"}, "human CD33 S131A": {"molecular_target": "human CD33 S131A (human, UniProt P20138 18-364)", "sequence (P20138 18-364 S131A limits assumed)": "as the sequence (P20138 18-364 E121A limits assumed) above, with A104E, S114A counted along it", "experiment": "flow cytometry on HEK293-T, alanine scan", "description": "as §1, §2"}, "human CD33 S115A": {"molecular_target": "human CD33 S115A (human, UniProt P20138 18-364)", "sequence (P20138 18-364 S115A limits assumed)": "as the sequence (P20138 18-364 E121A limits assumed) above, with S98A, A104E counted along it", "experiment": "flow cytometry on HEK293-T, alanine scan", "description": "as §1, §2"}, "human CD33 R144A": {"molecular_target": "human CD33 R144A (human, UniProt P20138 18-364)", "sequence (P20138 18-364 R144A limits assumed)": "as the sequence (P20138 18-364 E121A limits assumed) above, with A104E, R127A counted along it", "experiment": "flow cytometry on HEK293-T, alanine scan", "description": "as §1, §2"}, "human CD33 T162A": {"molecular_target": "human CD33 T162A (human, UniProt P20138 18-364)", "sequence (P20138 18-364 T162A limits assumed)": "as the sequence (P20138 18-364 E121A limits assumed) above, with A104E, T145A counted along it", "experiment": "flow cytometry on HEK293-T, alanine scan", "description": "as §1, §2"}, "human CD33 N160A": {"molecular_target": "human CD33 N160A (human, UniProt P20138 18-364)", "sequence (P20138 18-364 N160A limits assumed)": "as the sequence (P20138 18-364 E121A limits assumed) above, with A104E, N143A counted along it", "experiment": "flow cytometry on HEK293-T, alanine scan", "description": "as §1, §2"}, "human CD33 S135A": {"molecular_target": "human CD33 S135A (human, UniProt P20138 18-364)", "sequence (P20138 18-364 S135A limits assumed)": "as the sequence (P20138 18-364 E121A limits assumed) above, with A104E, S118A counted along it", "experiment": "flow cytometry on HEK293-T, alanine scan", "description": "as §1, §2"}, "human CD33 R110A": {"molecular_target": "human CD33 R110A (human, UniProt P20138 18-364)", "sequence (P20138 18-364 R110A limits assumed)": "as the sequence (P20138 18-364 E121A limits assumed) above, with R93A, A104E counted along it", "experiment": "flow cytometry on HEK293-T, alanine scan", "description": "as §1, §2"}, "human CD33 F118A": {"molecular_target": "human CD33 F118A (human, UniProt P20138 18-364)", "sequence (P20138 18-364 F118A limits assumed)": "as the sequence (P20138 18-364 E121A limits assumed) above, with F101A, A104E counted along it", "experiment": "flow cytometry on HEK293-T, alanine scan", "description": "as §1, §2"}, "human CD33 H157A": {"molecular_target": "human CD33 H157A (human, UniProt P20138 18-364)", "sequence (P20138 18-364 H157A limits assumed)": "as the sequence (P20138 18-364 E121A limits assumed) above, with A104E, H140A counted along it", "experiment": "flow cytometry on HEK293-T, alanine scan", "description": "as §1, §2"}, "human CD33 V165A": {"molecular_target": "human CD33 V165A (human, UniProt P20138 18-364)", "sequence (P20138 18-364 V165A limits assumed)": "as the sequence (P20138 18-364 E121A limits assumed) above, with A104E, V148A counted along it", "experiment": "flow cytometry on HEK293-T, alanine scan", "description": "as §1, §2"}, "human CD33 D107A": {"molecular_target": "human CD33 D107A (human, UniProt P20138 18-364)", "sequence (P20138 18-364 D107A limits assumed)": "as the sequence (P20138 18-364 E121A limits assumed) above, with D90A, A104E counted along it", "experiment": "flow cytometry on HEK293-T, alanine scan", "description": "as §1, §2"}, "[1]": {"molecular_target": "human CD33 extracellular region N20E (human, UniProt P20138 21-259)", "sequence (P20138 other isoform, or with tags, fused parts or gaps N20E N20E)": "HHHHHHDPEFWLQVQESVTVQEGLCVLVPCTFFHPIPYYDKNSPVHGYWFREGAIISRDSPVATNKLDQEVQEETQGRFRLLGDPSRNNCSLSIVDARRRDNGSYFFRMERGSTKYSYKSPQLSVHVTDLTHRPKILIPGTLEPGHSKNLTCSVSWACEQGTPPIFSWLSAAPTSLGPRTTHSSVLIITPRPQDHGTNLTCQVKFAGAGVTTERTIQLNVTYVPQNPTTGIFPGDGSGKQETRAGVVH", "experiment": "BLI Octet, IgG captured on AHC, CD33 analyte;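 note: CD33 variants and wild type run as analyte at 5, 50 and 500 nM, 700 s association then 1200 s dissociation, buffer-only reference subtracted, global 1:1 fit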"}, "[2]": {"molecular_target": "human CD33 extracellular region W22S (human, UniProt P20138 18-259)", "sequence (P20138 other isoform, or with tags, fused parts or gaps W22S W22S)": "as the sequence (P20138 other isoform, or with tags, fused parts or gaps N20E N20E) above, with E9N, W11S counted along it", "experiment": "BLI Octet, IgG captured on AHC, CD33 analyte"}, "[3]": {"molecular_target": "human CD33 extracellular region F21I (human, UniProt P20138 22-259)", "sequence (P20138 other isoform, or with tags, fused parts or gaps F21I F21I)": "as the sequence (P20138 other isoform, or with tags, fused parts or gaps N20E N20E) above, with E9N, F10I counted along it", "experiment": "BLI Octet, IgG captured on AHC, CD33 analyte"}},
  "data": [
    {"binder": "Refmab #3 (antibody, V domains shown, The alanine scan used IgG or Fab) VH: QVQLVQSGAEVKKPGSSVKVSCKASGYTFTDYNMHWVRQAPGQGLEWIGYIYPYNGGTGYNQKFKSKATITADESTNTAYMELSSLRSEDTAVYYCARGRPAMDYWGQGTLVTVSS VL: DIQMTQSPSSLSASVGDRVTITCRASESVDNYGISFMNWFQQKPGKAPKLLIYAASNQGSGVPSRFSGSGSGTDFTLTISSLQPDDFATYYCQQSKEVPWTFGQGTKVEIK", "values": [
      {"measurement": "Mean % WT Binding", "setting": "human CD33 E121A", "result": 132, "unit": "% WT binding"},
      {"measurement": "Mean % WT Binding", "setting": "human CD33 G156A", "result": 116, "unit": "% WT binding"},
      {"measurement": "Mean % WT Binding", "setting": "human CD33 P145A", "result": 75.2, "unit": "% WT binding"},
      {"measurement": "Mean % WT Binding", "setting": "human CD33 R109A", "result": 112, "unit": "% WT binding"},
      {"measurement": "Mean % WT Binding", "setting": "human CD33 K146A", "result": 118, "unit": "% WT binding"},
      {"measurement": "Mean % WT Binding", "setting": "human CD33 D95A", "result": 103, "unit": "% WT binding"},
      {"measurement": "Mean % WT Binding", "setting": "human CD33 W167A", "result": 129, "unit": "% WT binding"},
      {"measurement": "Mean % WT Binding", "setting": "human CD33 T152A", "result": 155, "unit": "% WT binding"},
      {"measurement": "Mean % WT Binding", "setting": "human CD33 I147A", "result": 67.1, "unit": "% WT binding"},
      {"measurement": "Mean % WT Binding", "setting": "human CD33 K159A", "result": 110, "unit": "% WT binding"},
      {"measurement": "Mean % WT Binding", "setting": "human CD33 L141A", "result": 153, "unit": "% WT binding"},
      {"measurement": "Mean % WT Binding", "setting": "human CD33 S158A", "result": 111, "unit": "% WT binding"},
      {"measurement": "Mean % WT Binding", "setting": "human CD33 T139A", "result": 143, "unit": "% WT binding"},
      {"measurement": "Mean % WT Binding", "setting": "human CD33 N100A", "result": 107, "unit": "% WT binding"},
      {"measurement": "Mean % WT Binding", "setting": "human CD33 S164A", "result": 96.3, "unit": "% WT binding"},
      {"measurement": "Mean % WT Binding", "setting": "human CD33 L148A", "result": 108, "unit": "% WT binding"},
      {"measurement": "Mean % WT Binding", "setting": "human CD33 L93A", "result": 120, "unit": "% WT binding"},
      {"measurement": "Mean % WT Binding", "setting": "human CD33 H137A", "result": 100, "unit": "% WT binding"},
      {"measurement": "Mean % WT Binding", "setting": "human CD33 D112A", "result": 77.5, "unit": "% WT binding"},
      {"measurement": "Mean % WT Binding", "setting": "human CD33 R122A", "result": 177, "unit": "% WT binding"},
      {"measurement": "Mean % WT Binding", "setting": "human CD33 S131A", "result": 117, "unit": "% WT binding"},
      {"measurement": "Mean % WT Binding", "setting": "human CD33 S115A", "result": 77.2, "unit": "% WT binding"},
      {"measurement": "Mean % WT Binding", "setting": "human CD33 R144A", "result": 112, "unit": "% WT binding"},
      {"measurement": "Mean % WT Binding", "setting": "human CD33 T162A", "result": 109, "unit": "% WT binding"},
      {"measurement": "Mean % WT Binding", "setting": "human CD33 N160A", "result": 99.3, "unit": "% WT binding"},
      {"measurement": "Mean % WT Binding", "setting": "human CD33 S135A", "result": 107, "unit": "% WT binding"},
      {"measurement": "Mean % WT Binding", "setting": "human CD33 R110A", "result": 99.1, "unit": "% WT binding"},
      {"measurement": "Mean % WT Binding", "setting": "human CD33 F118A", "result": 8.2, "unit": "% WT binding"},
      {"measurement": "Mean % WT Binding", "setting": "human CD33 H157A", "result": 138, "unit": "% WT binding"},
      {"measurement": "Mean % WT Binding", "setting": "human CD33 V165A", "result": 116, "unit": "% WT binding"},
      {"measurement": "Mean % WT Binding", "setting": "human CD33 D107A", "result": 92.5, "unit": "% WT binding"}
    ]},
    {"binder": "Refmab #3 (antibody, human IgG1, V domains shown) VH: QVQLVQSGAEVKKPGSSVKVSCKASGYTFTDYNMHWVRQAPGQGLEWIGYIYPYNGGTGYNQKFKSKATITADESTNTAYMELSSLRSEDTAVYYCARGRPAMDYWGQGTLVTVSS VL: DIQMTQSPSSLSASVGDRVTITCRASESVDNYGISFMNWFQQKPGKAPKLLIYAASNQGSGVPSRFSGSGSGTDFTLTISSLQPDDFATYYCQQSKEVPWTFGQGTKVEIK", "values": [
      {"measurement": "% WT binding", "setting": "[1]", "result": 6.04, "unit": "%"},
      {"measurement": "% WT binding", "setting": "[2]", "result": 20.1, "unit": "%"},
      {"measurement": "% WT binding", "setting": "[3]", "result": 0, "unit": "%"}
    ]},
    {"binder": "Refmab #4 (antibody, human IgG1, V domains shown) VH: QVQLVQSGAEVKKPGESVKVSCKASGYTFTNYGMNWVKQAPGQGLEWMGWINTYTGEPTYADKFQGRVTMTTDTSTSTAYMEIRNLGGDDTAVYYCARWSWSDGYYVYFDYWGQGTSVTVSS VL: DIVMTQSPDSLTVSLGERTTINCKSSQSVLDSSTNKNSLAWYQQKPGQPPKLLLSWASTRESGIPDRFSGSGSGTDFTLTIDSPQPEDSATYYCQQSAHFPITFGQGTRLEIK", "values": [
      {"measurement": "% WT binding", "setting": "[1]", "result": 100, "unit": "%"},
      {"measurement": "% WT binding", "setting": "[2]", "result": 93, "unit": "%"},
      {"measurement": "% WT binding", "setting": "[3]", "result": 84.2, "unit": "%"}
    ]}
  ]
}
